Measured values reported in article PMC6680903 (Molecules, 2019).
Values belong to the binder of their own block, whether it stands above or below them.

Assays:
[1] = biological target: T1, β2-Microglobulin (Homo sapiens, UniProt P61769); assay: SPR; Biacore T200; β2M immobilised on a CM5 chip to 150 RU; VHH samples after the modification procedure (NHS-Fluo:VHH 0, 1, 5 or 20; 2 h at 4 °C, ultrafiltration) in 2-fold serial dilution, 30 μL/min, HBS-EP+, 25 °C; 1:1 model with drift and RI2; conditions: both partners purified
T1 construct: human β2-microglobulin; Amine-coupled to a CM5 chip (150 RU); also called antigen β2M; source: expressed and purified as previously described [27]

[2] = biological target: T1, β2-Microglobulin; assay: SPR; Biacore T200; β2M immobilised on a CM5 chip to 150 RU; VHH samples 'Origin' (no treatment) in 2-fold serial dilution, 30 μL/min, HBS-EP+, 25 °C; 1:1 model with drift and RI2; conditions: both partners purified
[3] = biological target: T2, β2-Microglobulin (β2M) (Homo sapiens, UniProt P61769); assay: SPR; Biacore T200; β2M immobilized on a CM5 chip to 150 RU; 2-fold serial diluted VHH at 30 μL/min in HBS-EP+; 25 °C; 1:1 binding model; VHH samples after incubation with NHS-Fluo at molar ratio 0 (negative control), 1, 5 or 20 and ultrafiltration; conditions: both partners purified
T2 construct: β2-microglobulin, human (the title says anti-human β2-microglobulin VHHs); Probably the mature protein without the signal peptide (surmised); also called antigen β2M; human β2-microglobulin; source: expressed and purified as previously described [27]

[4] = biological target: T1, β2-Microglobulin; assay: SPR; Biacore T200; β2M immobilised on a CM5 chip to 150 RU; VHH samples after the modification procedure (NHS-Fluo:VHH 0, 1, 5 or 20; 2 h at 4 °C, ultrafiltration) in 2-fold serial dilution, 30 μL/min, HBS-EP+, 25 °C; 1:1 model with drift and RI2
[5] = biological target: T1, β2-Microglobulin; assay: as above; conditions: both partners purified; remark: listed apart in the source
[6] = biological target: T1, β2-Microglobulin; assay: SPR; Biacore T200; β2M immobilised on a CM5 chip to 150 RU; VHH samples 'Origin' (no treatment) in 2-fold serial dilution, 30 μL/min, HBS-EP+, 25 °C; 1:1 model with drift and RI2; conditions: both partners purified; remark: listed apart in the source

koff [1]: 0.00257 s⁻¹
kon [1]: 3540 M⁻¹ s⁻¹
Kd [2]: 356 nM
koff [2]: 0.00218 s⁻¹
kon [2]: 6120 M⁻¹ s⁻¹
B1: NB-2 (VHH)
VHH: QVQLVESGGGLVQHGGSLRLSCAASGSAFSTYSMTWHRQAPGKGREWVAGVDRSNSDTNYADSVKGRFTIYRDNAQNTVYLRMNSLKPEDTAVYYCSAERLDGSVRREYWGQGTQVTVSS
notes: VHH domain of NB-2; flexible (G4S)4 linker between the VHH domain and the His6 tag, written out from '(G4S)4'; VHH-(G4S)4-His6; Template of the homology model: PDB 5IML (GMQE 0.92). 'Origin' = no treatment; '0' = negative control; also called NB-2-Origin; NB-2-0; source: E. coli SHuffle T7, purified (HisTrap HP)

Kd [3]: 42.3 µM
B2: NB-2 modified by a 20 fold amount of NHS-Fluo (VHH)
VHH: B1 VHH
notes: VHH domain as in m4 (NB-2); flexible (G4S)4 linker between the VHH domain and the 6xHis-tag, written out from the printed formula; Heterogeneous product of random amino modification; also called modified NB-2; NB-2 20:1; source: E. coli SHuffle T7, purified (HisTrap HP), then modified with NHS-Fluo (2 h, 4 °C), ultrafiltration

Kd [1]: 9.37 µM
koff [1]: 0.00554 s⁻¹
kon [1]: 591 M⁻¹ s⁻¹
B3: NB-2 modified with 5 times of NHS-Fluo (VHH)
VHH: B1 VHH
notes: as the VHH domain of Dm6; flexible (G4S)4 linker between the VHH domain and the His6 tag, written out from '(G4S)4'; A mixture of isomers with different numbers and places of fluorescein; also called NB-2-5; source: E. coli SHuffle T7, purified (HisTrap HP), modified with NHS-Fluo, ultrafiltration

koff [1]: 0.00328 s⁻¹
kon [1]: 77.4 M⁻¹ s⁻¹
B4: NB-2 modified with 20 times of NHS-Fluo (VHH)
VHH: B1 VHH
notes: as the VHH domain of Dm6; flexible (G4S)4 linker between the VHH domain and the His6 tag, written out from '(G4S)4'; A mixture of isomers with different numbers and places of fluorescein; also called NB-2-20; source: E. coli SHuffle T7, purified (HisTrap HP), modified with NHS-Fluo, ultrafiltration

Kd [1]: 2.53 µM
koff [1]: 0.00403 s⁻¹
kon [1]: 1600 M⁻¹ s⁻¹
B5: NB-2 modified with 1 time of NHS-Fluo (VHH)
VHH: B1 VHH
notes: as the VHH domain of Dm6; flexible (G4S)4 linker between the VHH domain and the His6 tag, written out from '(G4S)4'; A mixture of isomers with different numbers and places of fluorescein; also called NB-2-1; source: E. coli SHuffle T7, purified (HisTrap HP), modified with NHS-Fluo, ultrafiltration

Kd [3]: 0.726 µM
fold increase of KD against the sample without any treatment [3]: ~2 fold
B6: NB-2 (anti-β2M VHH, unmodified), VHH-(G4S)4-His6 (VHH)
VHH: B1 VHH
notes: VHH domain of NB-2; flexible (G4S)4 linker between the VHH domain and the 6xHis-tag, written out from the printed formula; Homology model built on template PDB 5IML (GMQE 0.92), a template only; also called NB-2-origin; NB-2-0; source: E. coli SHuffle T7, purified (HisTrap HP)

Kd [4]: 26.2 µM
koff [4]: 0.00315 s⁻¹
kon [4]: 120 M⁻¹ s⁻¹
B7: NB-4 modified with 1 time of NHS-Fluo (VHH)
VHH: QVQLVESGGGLVEPGGSVRLSCAVSGNIVSISTVGWYRQAPGKQRELVASITGGGTTNYGDFVNGRFSIYRDNAPNRVYLHMSTLRPDDTAVYYCNARAGGSGSGSDPYDYWGVGTQVTVSS

Kd [5]: 536 nM
koff [5]: 0.003 s⁻¹
kon [5]: 5600 M⁻¹ s⁻¹
Kd [6]: 289 nM
koff [6]: 0.0028 s⁻¹
kon [6]: 9700 M⁻¹ s⁻¹
B8: NB-4 (VHH)
VHH: B7 VHH
notes: VHH domain of NB-4; flexible (G4S)4 linker between the VHH domain and the His6 tag, written out from '(G4S)4'; VHH-(G4S)4-His6; Template of the homology model: PDB 5IMK (GMQE 0.85). 'Origin' = no treatment; '0' = negative control; also called NB-4-Origin; NB-4-0; source: E. coli SHuffle T7, purified (HisTrap HP)

fold increase of KD against the sample without any treatment [3]: ~2 fold
B9: NB-4 (anti-β2M VHH, unmodified), VHH-(G4S)4-His6 (VHH)
VHH: B7 VHH
notes: VHH domain of NB-4; flexible (G4S)4 linker between the VHH domain and the 6xHis-tag, written out from the printed formula; Homology model built on template PDB 5IMK (GMQE 0.85), a template only; also called NB-4-origin; NB-4-0; source: E. coli SHuffle T7, purified (HisTrap HP)

koff [1]: 0.00669 s⁻¹
kon [1]: 48500 M⁻¹ s⁻¹
Kd [2]: 61.8 nM
koff [2]: 0.00614 s⁻¹
kon [2]: 99300 M⁻¹ s⁻¹
B10: NB-1 (VHH)
VHH: QVQLVESGGGLVQAGGSLRLSCAASGSTLDSYYIGWFRQAPGKEREGVSCISSSGNSIRYVDSVKDRFTISRDNGKNTAYLHINSLRPEDTAVYYCAASRRGRKPGLPCSLVRERYAYWGQGTQVTVSS
notes: VHH domain of NB-1; flexible (G4S)4 linker between the VHH domain and the His6 tag, written out from '(G4S)4'; VHH-(G4S)4-His6; Template of the homology model: PDB 4KDT (GMQE 0.99). 'Origin' = no treatment; '0' = negative control, all physical steps of the modification without NHS-Fluo; also called NB-1-Origin; NB-1-0; source: E. coli SHuffle T7, purified (HisTrap HP)
